# Reference: paper PMC6166713
# What was measured:
# Experiment in all cases: BLI; Octet Red; GST-WASP variants loaded on anti-GST sensors (10 μg/ml), dipped into a dilution range of Cdc42·GMPPNP; 50 mM Tris-HCl pH 7.5, 150 mM NaCl, 1 mM MgCl2, 0.02% Tween 20, 0.1% BSA, 0.05% sodium azide, 25 °C; GST-alone sensors subtracted
# [1] = target: GST-WASP(201–321) K225A/R227A (UniProt P42768)
# [2] = target: GST-WASP(201–321) K225A/K226A (UniProt P42768)
# [3] = target: GST-WASP(201–321) K230A/K232A (UniProt P42768)
# [4] = target: GST-WASP(201–321) K226A (UniProt P42768)
# [5] = target: GST-WASP(201–321) K226A/R227A (UniProt P42768)
# [6] = target: GST-WASP(201–321) K225A (UniProt P42768)
# [7] = target: GST-WASP(201–321) K225A/K226A/R227A/K230A/K231A/K232A (UniProt P42768)
# [8] = target: GST-WASP(201–321) K230A/K231A (UniProt P42768)
# [9] = target: GST-WASP(201–321) K225A/K226A/R227A (UniProt P42768)
# [10] = target: GST-WASP(201–321) K231A/K232A (UniProt P42768)
# [11] = target: GST-WASP(201–321) K230A/K231A/K232A (UniProt P42768)
# [12] = target: GST-WASP(201–321) wild type (UniProt P42768)
substance,measurement,setting,value
Cdc42 Δ7 Q61L (from UniProt P60953 1-191) (natural protein),Kd,[1],81.5 nM
same,koff,[1],0.0371 s⁻¹
same,kon,[1],456000 M⁻¹ s⁻¹
same,Kd,[2],59.6 nM
same,koff,[2],0.0295 s⁻¹
same,kon,[2],490000 M⁻¹ s⁻¹
same,Kd,[3],142 nM
same,koff,[3],0.067 s⁻¹
same,kon,[3],484000 M⁻¹ s⁻¹
same,Kd,[4],54.4 nM
same,koff,[4],0.0338 s⁻¹
same,kon,[4],676000 M⁻¹ s⁻¹
same,Kd,[5],74.8 nM
same,koff,[5],0.0372 s⁻¹
same,kon,[5],497000 M⁻¹ s⁻¹
same,Kd,[6],83.5 nM
same,koff,[6],0.0468 s⁻¹
same,kon,[6],671000 M⁻¹ s⁻¹
same,Kd,[7],734 nM
same,koff,[7],0.145 s⁻¹
same,kon,[7],198000 M⁻¹ s⁻¹
same,Kd,[8],162 nM
same,koff,[8],0.0684 s⁻¹
same,kon,[8],422000 M⁻¹ s⁻¹
same,Kd,[9],79.2 nM
same,koff,[9],0.042 s⁻¹
same,kon,[9],540000 M⁻¹ s⁻¹
same,Kd,[10],178 nM
same,koff,[10],0.0639 s⁻¹
same,kon,[10],368000 M⁻¹ s⁻¹
same,Kd,[11],307 nM
same,koff,[11],0.0914 s⁻¹
same,kon,[11],300000 M⁻¹ s⁻¹
same,Kd,[12],63.7 nM
same,koff,[12],0.0417 s⁻¹
same,kon,[12],691000 M⁻¹ s⁻¹
